Assay results published in publication PMC2780292, “Structural Requirements for PACSIN/Syndapin Operation during Zebrafish Embryonic Notochord Development” (PLoS ONE, 2009).

Molecular target: the molecule itself
Assay: crystal structure; selenomethionine SAD, 2.7 Å; crystals from 17% PEG 3350, 0.1 M disodium phosphate, hanging drop; two molecules in the asymmetric unit

B1: Drosophila Syndapin N-terminal EFC domain (domain or fragment, Drosophila melanogaster)
chain: SDSFWEPGNYKRTTKRIEDGYKLCNDLQQLIQERADIEKGYAKSLRTWSKKWGELIEKGPEYGTTEAAWKGVLTESERISDVHMKIKDNLCNDVNSQIKTWQKENYHHTLMQIKERKDLEDLFKKAQKPWAKLLAKVEKAKADYHSACKTERSATNQERNANADSSLSPDQVKKMHDRVQKTKDQVQKCREKYEQAIAEITKYNSVYIEDMTSVFEKCQTFEKTRLQFFKEILFNVHSCLDLTKVQSLPQIYEEFSHTINNADQQKDLKWWSNNHGINMAMNWPSFVEYT
modifications: selenomethionine-substituted
notes: the model holds residues 14-303 (chain A, 169-188 missing) and 14-298 (chain B); The fragment arose from full-length Syndapin during crystallization; Antiparallel homodimer; also called Syndapin EFC domain; Syndapin EFC dimer; source: crystals contained only the EFC domain
  stoichiometry N: 2
